Consider one substance from paper PMC8869672.

The experiment deals with T1, NADPH-cytochrome P450 reductase (human (endogenous in human liver microsomes)) (UniProt P16435).
T1 sequence: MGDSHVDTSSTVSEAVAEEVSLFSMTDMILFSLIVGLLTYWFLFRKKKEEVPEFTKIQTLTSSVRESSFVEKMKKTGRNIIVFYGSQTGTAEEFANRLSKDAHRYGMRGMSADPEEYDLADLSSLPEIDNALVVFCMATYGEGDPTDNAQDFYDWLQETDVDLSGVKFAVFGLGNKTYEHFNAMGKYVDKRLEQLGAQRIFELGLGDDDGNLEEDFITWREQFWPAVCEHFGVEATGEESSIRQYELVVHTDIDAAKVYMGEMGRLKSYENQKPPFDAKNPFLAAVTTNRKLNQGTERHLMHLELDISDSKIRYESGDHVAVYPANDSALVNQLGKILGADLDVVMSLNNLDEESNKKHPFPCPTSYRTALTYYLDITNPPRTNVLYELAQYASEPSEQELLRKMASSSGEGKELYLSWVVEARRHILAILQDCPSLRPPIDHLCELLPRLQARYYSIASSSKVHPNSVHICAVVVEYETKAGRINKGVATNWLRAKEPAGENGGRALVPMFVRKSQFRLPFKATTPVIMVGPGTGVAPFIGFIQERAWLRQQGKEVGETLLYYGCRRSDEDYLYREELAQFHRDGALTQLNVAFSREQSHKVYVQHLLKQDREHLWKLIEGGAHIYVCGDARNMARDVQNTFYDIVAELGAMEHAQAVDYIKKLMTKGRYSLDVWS

For the substance “C-terminally His-tagged and N-terminally truncated Δ3–20 CYP2E1 modified with benzophenone-4-maleimide (BPM) or 4-(N-succinimidylcarboxy)benzophenone (BPS) (from UniProt P05181 1-493) (enzyme)”, the Vmax of 7-EFC deethylation by CYP2E1-BPM incorporated into insect cell microsomes with cDNA-expressed human CPR and cytochrome b5 (SS(CPR+b5)2E1-BPM), normalised per CPR was 0.104 s⁻¹; the Vmax of 7-EFC deethylation by CYP2E1-BPS incorporated into insect cell microsomes with cDNA-expressed human CPR and cytochrome b5 (SS(CPR+b5)2E1-BPS), normalised per CPR came out at 1.51 s⁻¹.
